Laboratory results as given in publication PMC4312760.

Key:
[1] = biological target: Boxer virus (BV, GI.8) P domain, wild type, as P particle (Boxer virus (human norovirus GI.8)); assay: SEC; gel filtration on Superdex 200 followed by SDS-PAGE; P particles form a peak at 830 kDa
[2] = biological target: Boxer virus (BV, GI.8) VP1 P domain, Q227-L526 (P dimer) (Boxer virus (human norovirus GI.8)); assay: crystal structure; P protein at 10 mg/mL (native) or 14 mg/mL with Le^b or Le^y tetrasaccharide, hanging drop, 0.1 mol/L LiCl, 18% PEG 3350, 10% MPD, 16°C; space group P6_(1), two protomers in the asymmetric unit

Substance | efficiency of P particle formation [1] [%] | stoichiometry N [2]
Boxer virus (BV, GI.8) P domain, wild type, as P particle (domain or fragment) | 80 | –
Boxer virus (BV, GI.8) VP1 P domain, Q227-L526 (P dimer) (domain or fragment) | – | 2
